Assay results as given in publication PMC8453022, “A New Subfamily of Glycoside Hydrolase Family 30 with Strict Xylobiohydrolase Function” (Frontiers in Molecular Biosciences, 2021).

How the values were obtained:
AcXbh30A-CD = molecular target: T1, AcXbh30A-CD (Acetivibrio clariflavus, UniProt G8LU16); test: pNP-X2 hydrolysis, non-linear competitive inhibition fit; format: biochemical; details: competitive product inhibition; substrate pNP-X2; 30 mM sodium acetate pH 4.0, 0.02 mg/ml BSA, 65 C; read-out: AcXbh30A pNP-X2 kinetic values^a ^, ^b / 116.4 ± 3.23 μM
T1 construct: gene Clocl_1795; GH30 catalytic domain only, secretion leader and C-terminal type I dockerin removed, C-terminal His-tag, pET28 expression, ca. 50 kDa, apparent monomer
T1 sequence (G8LU16 29-455 limits assumed): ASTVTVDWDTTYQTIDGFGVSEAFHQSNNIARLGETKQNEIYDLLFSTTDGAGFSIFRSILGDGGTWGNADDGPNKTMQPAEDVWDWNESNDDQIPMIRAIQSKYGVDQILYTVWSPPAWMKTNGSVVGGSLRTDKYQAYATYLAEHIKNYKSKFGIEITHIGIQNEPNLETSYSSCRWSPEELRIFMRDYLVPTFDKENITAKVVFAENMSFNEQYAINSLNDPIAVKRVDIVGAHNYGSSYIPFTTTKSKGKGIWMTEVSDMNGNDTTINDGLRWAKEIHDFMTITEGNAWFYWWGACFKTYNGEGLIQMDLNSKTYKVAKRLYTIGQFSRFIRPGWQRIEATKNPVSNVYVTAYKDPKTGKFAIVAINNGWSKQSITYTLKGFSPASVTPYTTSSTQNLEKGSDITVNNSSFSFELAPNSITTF
From the text: pNP-X2 hydrolysis, non-linear competitive inhibition fit on AcXbh30A-CD

purified protein = substrate: O=[N+]([O-])c1ccc(O[C@@H]2OC[C@@H](O[C@@H]3OC[C@@H](O)[C@H](O)[C@H]3O)[C@H](O)[C@H]2O)cc1; test: purified protein; format: biochemical, Acetivibrio clariflavus; details: 30 mM sodium acetate pH 4.0, 0.02 mg/ml BSA, 65 C, 10 min

| Molecule | Ki (AcXbh30A-CD) | Km (purified protein) | Vmax (purified protein) | kcat (purified protein) | kcat/Km (purified protein) |
| --- | --- | --- | --- | --- | --- |
| OC1OC[C@@H](O[C@@H]2OC[C@@H](O)[C@H](O)[C@H]2O)[C@H](O)[C@H]1O (some centres unmarked) [X2] | 2400 µM | – | – | – | – |
| AcXbh30A-CD (Acetivibrio clariflavus DSM 19732) (protein, GH30 catalytic domain only, secretion leader and C-terminal type I dockerin removed, C-terminal His-tag, pET28 expression, ca. 50 kDa, apparent monomer) ASTVTVDWDTTYQTIDGFGVSEAFHQSNNIARLGETKQNEIYDLLFSTTDGAGFSIFRSILGDGGTWGNADDGPNKTMQPAEDVWDWNESNDDQIPMIRAIQSKYGVDQILYTVWSPPAWMKTNGSVVGGSLRTDKYQAYATYLAEHIKNYKSKFGIEITHIGIQNEPNLETSYSSCRWSPEELRIFMRDYLVPTFDKENITAKVVFAENMSFNEQYAINSLNDPIAVKRVDIVGAHNYGSSYIPFTTTKSKGKGIWMTEVSDMNGNDTTINDGLRWAKEIHDFMTITEGNAWFYWWGACFKTYNGEGLIQMDLNSKTYKVAKRLYTIGQFSRFIRPGWQRIEATKNPVSNVYVTAYKDPKTGKFAIVAINNGWSKQSITYTLKGFSPASVTPYTTSSTQNLEKGSDITVNNSSFSFELAPNSITTF | – | 116.4 ± 3.23 µM | 183.1 ± 1.13 U mg^−1 | 152.7 s⁻¹ | 1,311.6 s^−1 mM^−1 |
